Data on 18 sequences can be found in the DeepSol protein solubility set.

The series in a line: soluble on expression in E. coli; label from the status in PepcDB or PDB records.
“MAHHHHHHMRASERVPADDAATRVCPHSLIDSPSPSLMQAASAVATATATSSGIANLKQEASHEERLKVADHTAVKAWSLLNKMWYPDYHMASLAGWMGVPGGLCYHNGFYHVFYQYNPFSENWGPMHWGHMTSEDLVHWQHQPIALAPGELFDHDGCFSGSSVSYNNKLYIFYTGHTWRTESEKGSGNGTMGDGASFYQQQCVAVSSDGVNFEKLGAVVRPPPGYVHFRDPKVWQQDGRWWMVCGARDVTKDLGQLLLFTTEDLLKWDDTNWQVLGMTEDKNVFMWECPDMFRLGQMNVFLYSPQGMRKADYAYRNRFQSGYLLGSWNMSLVTAALSEREAGSPKGTASGSHAIGGPRWLASFDVTQRFREIDRGHDFYAPQTLLTKDGRRLIIGWMDMWESPMPTRGHGWSGCLTLPRELILDPFTGSVRMVPPKELLQLRCAQATILAQRIQESTDVLLVESCTAYELDIAFNMETSTAEKYGLWLGSGAELYVDAQSKRLVLNRHYPQHMLSGYRSCELPIGLLLQLHVFIDRSSIEVFVNNGEATFSSRVFPDEGDRALRVFSVNGTADMVGGTMWKLKATVRH”: the “soluble on expression in E. coli” value is “not soluble”.

In the case of “MAHHHHHHMRHMCVTLKRRACTVSFSPFLMSYFQSMLMPYRDSVRSSKSDKASSRTVNEEAKVSLSAFSFLFSEMCTRAHNTPSKASNVEEIEQRLTSLGVLVGARLIMLSSLKDPLELQRRPITIEGALKLFQDKLWSRWFGKPANDLQRETGSDRFFIFDTEPIVLRYVYPSPEYLDGEGRWSINYASFMGGIVEGALKAIGFAAEVLTYHQPEPSKPHQSIFAISFAKHVWDRERRLRG”, the “soluble on expression in E. coli” value is “not soluble”.

For the sequence “MAHHHHHHMRKAVRALQRRASQQAREVAVAANDMDGETATTQRPSFSLFWVQLTQAKVDVVLPPAQPPTPSAEVEAEEESETAERAAHAGHGGSRDTASAHTAAQFRRVHDTNRRVLRIIEACPDETLIVVLAGRCDGEAGGNHFSRAQGTCFAFVKDSSAPGPRPEELTKLTDENNVSALPRASAGGAAVDNIPLQDASALSTAAVPHSVDRETAMVEHTPLACQQQ”, the “soluble on expression in E. coli” value was “soluble”.

Consider “MAHHHHHHMRKGKSPSSFFSLHKKYLLTGVTILSFIFMFQYKYHEVLTVYEDKTNVQQSSRLFWTRLLFGRTRSRITGRIFNIEIPHSYRLYVYNFFIKYLNINKEEIKYPIESYKSLGDFFSRYIREDTRPIGDLNEYSIVSPCDSEIVDFGELTSNYLDNVKGIKFNIKTFLGSDMIKKYNDDSTSFYYAIFYLSPKKYHHFHAPFNFKYKIRRHISGEVFPVFQGMFKIINNLFDINERVILSGEWKGGHVYYAAISAYNVGNIKIVNDEDLLTNNLRTQLSYMGGDINTKIYDHYKDLEIGDEVGEFKVGSSIIVIFENKKNFKWNVKPNQQISVGERIGGVDQPKQPKNKFIKIRS”, for which the “soluble on expression in E. coli” value is listed as “soluble”.

As to “MAHHHHHHMRKKLVLPLSIGRGFSSWDDGSDGHEWKSRALAEKRLLALTYLGDVNKRVQIHDAIRLRGEVNKQAIRACELPTFFQTKETNEAENLQEIDYHSLLSMIEGEFEVDTLAHIAPSDANFLKTEFLQCDDSAEVKLLGQWSNLRRDTADYNNYASIPDGERNAWSAWYLRNVRPGKTEND”, the “soluble on expression in E. coli” value is given as “not soluble”.

As for “MAHHHHHHMRPVIVMLLHEEQDTGAYMIKYLVTRGMDFVMFRCWEERVASLVPKAAGETIRCLPVANKPHHYVPCLVNSTAAPSTESESLVTTSTSLAPVSSNVAEDCRIRAVASFGGSMSVNDELSYFESIRSLMRSCLEKRIPVIGHCLGGQLLSSALGGRIVLSENIEVGWYEMVVEEAEDVKDWFGGRKRFDAFHIHTDSFTIPQGARRIVTGAYCANQAFQVGDQFALGMQFHPEVDEDKVRSLISSQFPTLYTEEELADILRKGAEGAKTPDGRPLVSPGSMTRECIEKCLREGRIEQNRPIADSIYDTWCSGFLF”, the “soluble on expression in E. coli” value was “not soluble”.

As for “MAHHHHHHMRRVERSSRGEGEDTLATGEANVRTDTTVDVLRRASRHAQGAIETSWMTTRRLQVQGEQLEEIDRALDKMEHDLGVGDDALRRMTWTGRVKRWFTSRRKQPSDGVESSTSSSVPSSSLPIKPQGLREKNQQREGTRGSKRDDVIGCGSSTSHIAMEEEKLLDALLGDVHAMREQATLQGAMLTEHNRRLDVIATKTDAVHNHVNRTKQKVEKML”, the “soluble on expression in E. coli” value was “soluble”.

Take “MAHHHHHHMRRVVASRKAICEYRLYSQVSPQGYPVTAVTPQQIRRVPFYRHRKLYDLTTRELSEEAIRDFLPPKPAVPAGWSMEHKIGSCRFDLTKTMGADDSAREDLHVVALMEPKKYEQTYRMDNGERNGEEYLVFNLFIKKHQHSGGVEFGLTSIDMELVMDSLVVHSTDREMDYSIGALGPGKTTSVGTSFGQKLNIECRRCRDYRYRGPMLNELDDDLTDEILDYLDERGVNNGFAEYMMAQAHFLEQEEYLNWLRLLKQFAT”: the “soluble on expression in E. coli” value was “not soluble”.

Regarding “MAHHHHHHMSANGKISVPEAVVNWLFKVIQPIYNDGRTTFHDSLALLDNFHSLRPRTRVFTHSDGTPQLLLSIYGTISTGEDGSSPHSIPVIMWVPSMYPVKPPFISINLENFDMNTISSSLPIQEYIDSNGWIALPILHCWDPAAMNLIMVVQELMSLLHEPPQDQAP”, the “soluble on expression in E. coli” value was “soluble”.

“MAHHHHHHMSDSALLEGVSFPVEPFAEKHRKILALLAHAATQAVNTRSNEVVFDVLCSSEPSLARLYPEVAVLQGVHQIRRVLRNLQDSQPHVRPMYLKMIVDSLKDMNEMLPDPLLLVIARTVEILEGEGRGFRELEPHLLDLVEYIQVVILRETKLLQCRGTLITLRLRGVPPFVASETESTT”: the “soluble on expression in E. coli” value is reported as “not soluble”.

In the case of “MAHHHHHHMSELQSLTPETAFTVASTFLAYYYSEFVKLNELARMSDLYDERSYMTLVDFRDEVPVVAHGRNAVANLLAKLDSTLGQRKVEIITVDTVALPHNCVQVICQGVMYLREYRRVFLHVFMLEPTAYRTKTYHIASDYLRFVDSEKEVIPEGAVVIAADQVAAYLEESRRRVEEEQRRQLLEFQQRIRLQQQQLQMQQQQQQQKAAAMNMPAPASRQSRPAASASRDGGRPARGERKPREPRENRGERKPREPREPRGEHKPREGEEKVAAASPSRLAGEGKKGGERGNRKPAAAANAAKGTADTAAATPAPAAVRKPRRESGPTAAIIMLRVPKKIKLSDIKAELVSQGFSELKDLFWCGRDSAHAVVKFSTVEKATEAFETKPFKIQGESLNLDYYHE”, the “soluble on expression in E. coli” value is “soluble”.

With “MAHHHHHHMSFFRMKRRLNFVVKRGIEELWENSFLDNNVDMKKIEYSKTGDAWPCVLLRKKSFEDLHKLYYICLKEKNKLLGEQYFHLQNSTKMLQHGRLKKVKLTMKRILTVLSRRAIHDQCLRAKDMLKKQEEREFYEIQKFKLNEQLLCLKHKMNILKKYNSFSLEQISLTFSIKKIENKIQQIDIILNPLRKETMYLLIPHFKYQRKYSDLPGFISWKKQNIIALRNNMSKLHRLY”, the “soluble on expression in E. coli” value is on record as “not soluble”.

Regarding “MAHHHHHHMSKSDLFNDAQVPMRATVLRFGDDVEGASYPEAALTIDDAAVPAEAKVEVYHDGDNSGSAHESVPHHAQDLRHDFTSGILNCHESCAVCLDACLCMYCTASAHHNFLMNDTEGLYLPVCWGLFCVDVGLSAVSSYLPSSLHFHTYFMRSAIRRRYNLHSAGAPVNSNTHGSSSSGCDCTTESMLDLLTVCFCLPCAIAQHQREIMHQGDWCGGVFSNRYSLQTPATVHTI”, the “soluble on expression in E. coli” value was “not soluble”.

Regarding “MAHHHHHHMSKSIAVIAAGAPAALVQAASAMVSKATGGAVKAMQATSAASNAIVVGMQAPRGVYACVAEPPSTASGPYAGVKTVVVRAILPRRAPDTMQVRDILDVYPASGITCEQETAEAVESFSKAAKVAVEKAKAMKATRVTLVMKPATKYERLNSLFRETCTKTIEAAGLSVETATTAAATNTLIMFPEKMSVVMVSDDPVCENVQYAFAGVVGGAHTTYYTDAGSTIHGGHSYKSVAMALAEELKSLGMKAEAAKVEAAAQKSPRNAAAAM”, the “soluble on expression in E. coli” value was “not soluble”.

For “MAHHHHHHMSLEPTLRDLLHSKLQWIFVGGKGGVGKTTTSCALATLFASTPVHDAVTNTTRPRRVLLISTDPAHNLSDAFSQKFGKTPVPVNGMEETLFAMEVDPTTFTHGGFGAMLGFPGHIATDADAPSPFAALGNILKEAAGTLPGIDELSVFAEILRGVQQLSYDVVIFDTAPTGHTLRLLALPHTLNSTMEKLLSVEGLNTLIQAASAVLSSTTNLGDMSSLMPAFKQWRENVQEVQRQFTDAEKTAFICVCIPEFLSVYETERLVQELMKYDISCDSIVVNQLVLKPSSEPDCRMCNARQKIQSKYLAQIDSLYEDFHVVKMPLLSDEVRGVPALQRFAQFLLEPYDADRHGYIDVCGAAS”, the “soluble on expression in E. coli” value is on record as “soluble”.

Turning to “MAHHHHHHMSLNLTDAADDRSYKEMEKYTVERVAGQGTFGTVQLARDKSTGSLVAIKKVIQDPRFKNRELQIMQHLARLRHPNIVMLKNYFYTVGGEGRRNDVYLNVVMEFVPETLHRTCRNYYRRMTNPPLILVKVFMFQLLRSIACLHIPVINICHRDIKPHNVLVDEQTGELKLCDFGSAKRLAADEPNVAYICSRYYRAPELIFGNQFYTTAVDIWSVGCIFAEMLLGEPIFCGENTSGQLREIVKILGKPTKEELHKLNGSSTEINANAKATPWENVFKQPLPAEVYDLCGKIFKYVPDQRITPLDALCHPFFNELREPTTKLPSGNPLPAHLYQFTPDEVEAMTEAQREYLLKK”, the “soluble on expression in E. coli” value is listed as “not soluble”.

As to “MAHHHHHHMSMKGSKNMLSPLVGNIYNNVYDHKELKMKSINEQNNMGSNNYNINYVNNNNSTLSNNNHSKQNLCYNNFSSHSPSINKDSIHEEKKNNFYEQHNYIDENATHHTMEEENYKNFKNSKNYEHTIDEDVMQNEYSNIIKDNHLKKKKKKKNIHHLNNKDINNTNLNYETNEQVLIDLPKNHLLNKLTTSIIHSINPHLISEYTHEDITKRTNKISTLKKKKKKKKIEREEIYESDVDNTNGEDNTNDVDNTNDEDNTNDEDNTNDGDNEQIHYHKQFDDQIQKQKNKQNKQKKEYKEFDVYETKGYIPLSNEHKQNKSVCFLDNHVKYYTQQNNVPYEKNIIYENNLNDHQAHSYYNNTLNQFTPNSDILNYNNYINKEYIQGIYNTNNYNIKQDSVYEPNEQVMFMSPQEEKYIYMNASPNNIIRNNDMVFYSGQLDNEQMNININNNNNINNNDNNINSSSSVNDGCFNLHLNNMNNIFNTCTNTQNKQKTHKSFFCNSSAKNVINNENNVKNNKTEILIYKNDKTNNYQNNNQTKQNIQSNNHYNNNNNNNGNHINKFRFFTPTSNNVFVRTRSLTPNTYQKKKKNSFFACSPLKDINLNRQKSLPPQLYTTQDITQPIYTHDISYNLSNKNNIIQNDPYNNIQNITTTLSYPLVNSNFVHLYPYQNSNTNNQIKKIENFNVSKNYMNESSTQTSTETSSKSSKDTSLWNTQIHLLNEKIKNMKTKMENITKEKNEVNELCKMYKVIKNHINVNV”, the “soluble on expression in E. coli” value is “not soluble”.

With “MAHHHHHHMSQSTSLAYATLFHPSRDSATIQHSAARASAAHQQQVQQSPSITRATDGATYTAEGIAVASLSSLDTWTGFLSSQWAETVKMQLSMPSNAAPVISPSGADLISSLHSIVSRQNKVVAQPQEKLVAQRAKEEKDWEAKKQLSQSTSAEGMPGSFKNTKDEAVSSVDDNVADNAAENTQVCVLLAHLLEHARFLWARAVSQHFRVAQVRKSSSSKDTRSPKKVTADINAEAAMEEERVGLPPISLLFRCLVDGINSEEARQAIVTAGVLPASAWDSGVLGVDQLGILTVFERHVQALRTFPGIVPPLEALREYFAELHPQQLSKYYPSGALDSTLELAEAQMDAFLRFGDETEQMAALLRAGLHPSVRRLLYARALQVPLTVTDGKPMFLAQGELMTNHLRHGLARYLTCSSRQARDKVKRRFHHRYSSSKEENRVRLLQRLALDDMFISVGNSDKYFVYTDDVEVLSTAMVVDHSLPVPKMVQALKQLGRPRDLLDSYVTYLQYPETNLVQQKALPCGVAPLEGFALLLGALCNVTSDTVEQYELAAAIVAQLWSRLQGPTPELFQCCLIFESLVQQLALPAVLHATRNLQYPPLVLAMRWMLTGFADLLDAFEVLSFWDLVLSYHMREMHRRSPLSLPTGLANAAPHDTSTPCALWLLPMYAAAIFVMRAPLVEACRTAAEVDVVFATGHQLRTRSLLQGLLFG”, the “soluble on expression in E. coli” value was “not soluble”.
